The values that follow come from paper PMC5522039, “Non-invasive assessment of murine PD-L1 levels in syngeneic tumor models by nuclear imaging with nanobody tracers” (Oncotarget, 2017).

B1: Nb A1 (HA-tagged, in periplasmic extract) (VHH)
VHH: QVQLQESGGGLVQPGGSLRLSCAASGFTLDYYAIGWFRQAPGKEREGVSCISSSDGSTYYADSVKGRFTISRDNAKNTVYLQMSSLKPEDTAVYYCGISGSCLLEDYGMDYWGKGTQVTVSS
notes: source: E. coli WK6 (pHEN4), crude periplasmic extract
B2: Nb D1 (HA-tagged, in periplasmic extract) (VHH)
VHH: QVQLQESGGGLVQAGGSLRLSCAASGITVSINAMAWYRQPPGKQRELVALIIGGSTRYADSVKGRFTISRDNAKNTVYLQMNSLKPEDTAVYACNTRAYWGQGTQVTVSS
notes: as for B1
B3: Nb C7 (HA-tagged, in periplasmic extract) (VHH)
VHH: QVQLQESGGGSVQAGESLTLSCTASGSSLSHKSVGWWRQTPGNQRELVALVASGNNTNYVDSVKGRFTVSRDNAKNTMYLQMNSLKPEDTAVYYCRILSVNGIWYWGQGTQVTVSS
notes: as for B1
B4: Nb C6 (HA-tagged, in periplasmic extract) (VHH)
VHH: QVQLQESGGGLVQAGDSLRLSCAASGSTVSSSMMAWWRQTPGNQRELVALVASGNNTNYVDSVKGRFTVSRDNAKNTMYLQMNSLKPEDTAVYYCRILSVNGIWYWGQGTQVTVSS
notes: as for B1
B5: Nb C11 (HA-tagged, in periplasmic extract) (VHH)
VHH: B4 VHH with A14T, D16G, M33T, N55G
notes: as for B1
B6: Nb C14 (HA-tagged, in periplasmic extract) (VHH)
VHH: B4 VHH with A14T, D16G, S30G, M33T, A52G, S53L, N55G, R71I, K75E, P87F
notes: as for B1
B7: Nb C10 (HA-tagged, in periplasmic extract) (VHH)
VHH: B4 VHH with A14T, D16G, M33T, N55G, V100M
notes: as for B1
B8: Nb C12 (HA-tagged, in periplasmic extract) (VHH)
VHH: B4 VHH with A14T, D16G, M33T, N55G, P87A
notes: as for B1
B9: Nb C9 (HA-tagged, in periplasmic extract) (VHH)
VHH: B4 VHH with D16E, A24G, M33T, N55G, V100M
notes: as for B1
B10: Nb C13 (HA-tagged, in periplasmic extract) (VHH)
VHH: B4 VHH with A14T, D16G, M33T, W37Y, E46D, A52G, N55G, T57I, R71I
notes: as for B1
B11: Nb E1 (HA-tagged, in periplasmic extract) (VHH)
VHH: QVQLQESGGGLVQAGGSLRLSCATSGSIFSIISMGWYRQAPGKQRELVALVFRGGSTVYADSVKGRFTISGDIAKNTVYLQMDSLKPEDTAVYYCNVKSIGTAQYWGQGTQVTVSS
notes: as for B1
B12: Nb C15 (HA-tagged, in periplasmic extract) (VHH)
VHH: QVQLQESGGGLVQTGGSLRVSCAVSGSTVSRSTMAWWRQTPGNQRELVALVDSGGKSNYVDSVKGRFTISTDNAKNTMYLQMNSLKPEDTAVYYCRILSVQGIWYWGQGTQVTVSS
notes: as for B1
B13: Nb C16 (HA-tagged, in periplasmic extract) (VHH)
VHH: B12 VHH with T14A, R19K, R31S, Q101K
notes: as for B1
B14: Nb B1 (HA-tagged, in periplasmic extract) (VHH)
VHH: QVQLQESGGGLVHPGGSLRLSCAASGFSLDNYAIGWFRQAPGKEREGVSCISSGSEGRRYYADFVKGRFTISRDNAKNTAFLQMNSLKPEDTADYYCATVGFCSSQYGMEFVGDYWGQGTQVTVSS
notes: as for B1

Numbering of substitutions follows the chain as printed.

T2 sequence (Q9EP73 19-239): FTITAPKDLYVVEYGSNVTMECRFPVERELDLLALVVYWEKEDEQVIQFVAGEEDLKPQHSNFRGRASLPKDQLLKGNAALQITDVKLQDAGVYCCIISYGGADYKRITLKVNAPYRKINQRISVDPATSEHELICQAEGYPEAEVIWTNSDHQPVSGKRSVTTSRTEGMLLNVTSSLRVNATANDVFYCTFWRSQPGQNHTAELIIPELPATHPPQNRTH

The target of one experiment is T1, Human PD-L1 Fc-fusion protein (R&D Systems, 156-B7) (Homo sapiens, UniProt Q9NZQ7).
T1 construct: programmed death-ligand 1 (PD-L1, B7-H1, CD274), human; also called huPD-L1; B7-H1; source: bought: R&D Systems (156-B7)
T1 sequence (Q9NZQ7 19-238): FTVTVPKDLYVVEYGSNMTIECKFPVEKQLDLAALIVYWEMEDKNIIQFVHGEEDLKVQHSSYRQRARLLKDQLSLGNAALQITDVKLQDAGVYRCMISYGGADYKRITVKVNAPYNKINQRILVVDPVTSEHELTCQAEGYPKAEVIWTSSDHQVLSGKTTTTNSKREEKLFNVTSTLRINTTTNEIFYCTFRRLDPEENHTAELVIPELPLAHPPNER
In words: SPR; Biacore T200, 25°C, HBS (0.01 M HEPES pH 7.4, 0.15 M NaCl, 3 mM EDTA, 0.005% Tween 20); mouse or human PD-L1 Fc-fusion protein amine-coupled on a CM5 chip (650-900 RU); Nb in crude periplasmic extract as analyte, its concentration estimated by CFCA; 9 dilutions, 120 s association, 160 s dissociation; 1-to-1 fit; affinity estimations. As to conditions: one partner purified.
On to B1, for which the Kd was 23 nM.

In the case of B2, the Kd was 291 nM.

With B3, the dissociation constant (Kd) was 27 nM.

Consider B4, for which the Kd is 94 nM.

Consider B5, for which the Kd is 246 nM.

Regarding B6, the Kd is 71 nM.

In the case of B7, the Kd is 141 nM.

Consider B8, for which the Kd was 181 nM.

For B9, the Kd is 44 nM.

Turning to B10, the Kd is 162 nM.

As to B11, the Kd is 12 nM.

Turning to B12, the Kd was 335 nM.

Consider B13, for which the Kd is 520 nM.

For B14, the dissociation constant (Kd) is 6 nM.

A further experiment concerns the target T2, Mouse PD-L1 Fc-fusion protein (R&D Systems, 1019-B7) (Mus musculus, UniProt Q9EP73).
T2 construct: programmed death-ligand 1 (PD-L1, B7-H1, CD274), mouse; also called moPD-L1; B7-H1; source: bought: R&D Systems (1019-B7)
The description is as above. As to conditions: one partner purified.
For B2, the Kd was 12 nM.

B3: the Kd was 3.1 nM.

Consider B4, for which the Kd is 0.289 nM.

Regarding B5, the Kd was 12 nM.

For the molecule B6, the Kd was 1.8 nM.

Consider B7, for which the Kd was 6.7 nM.

Regarding B8, the Kd is 11.4 nM.

Take B9: the Kd is 2.2 nM.

B10: the Kd is 33 nM.

Take B11: the Kd is 2.3 nM.

Take B12: the Kd is 6.5 nM.

Regarding B13, the Kd is 15 nM.

As for B14, the Kd is 123 nM.

One may read the Kd as the free concentration of one partner at which half of the binding sites on the other are occupied at equilibrium, for simple one-to-one binding.
